Experimental data: the supplement of paper PMC9876800

Tested on: peptide library, one residue held at a place counted from the S/T acceptor
Experiment: relative phosphorylation of the sub-library (ratio to the mean residue at this position); higher = residue favoured
Settings: human
Summary of the method: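 Relative sub-library phosphorylation, a ratio to the mean residue at that position, was obtained by phosphorimaging and densitometry of spots on streptavidin membranes. Before capture, purified recombinant kinases were incubated for 90 min under kinase-specific conditions with 50 μM biotinylated degenerate peptide sub-libraries and 50 μM ATP spiked with γ-32P-ATP. Each sub-library fixed one residue at one position around a central Ser/Thr.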

Chain of AAK1, construct: aa27-365 (Q2M2I8 27-365, looked up): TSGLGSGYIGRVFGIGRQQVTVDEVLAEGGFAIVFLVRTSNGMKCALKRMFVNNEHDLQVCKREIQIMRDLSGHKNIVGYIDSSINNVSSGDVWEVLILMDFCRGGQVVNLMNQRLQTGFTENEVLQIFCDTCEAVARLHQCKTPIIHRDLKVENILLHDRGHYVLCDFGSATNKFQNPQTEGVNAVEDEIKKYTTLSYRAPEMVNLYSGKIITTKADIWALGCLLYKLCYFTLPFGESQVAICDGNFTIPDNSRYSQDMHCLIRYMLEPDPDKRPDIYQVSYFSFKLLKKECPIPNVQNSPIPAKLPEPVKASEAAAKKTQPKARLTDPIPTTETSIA
Chain of ACVR2B, construct: aa161-end (Q13705 161-512, looked up): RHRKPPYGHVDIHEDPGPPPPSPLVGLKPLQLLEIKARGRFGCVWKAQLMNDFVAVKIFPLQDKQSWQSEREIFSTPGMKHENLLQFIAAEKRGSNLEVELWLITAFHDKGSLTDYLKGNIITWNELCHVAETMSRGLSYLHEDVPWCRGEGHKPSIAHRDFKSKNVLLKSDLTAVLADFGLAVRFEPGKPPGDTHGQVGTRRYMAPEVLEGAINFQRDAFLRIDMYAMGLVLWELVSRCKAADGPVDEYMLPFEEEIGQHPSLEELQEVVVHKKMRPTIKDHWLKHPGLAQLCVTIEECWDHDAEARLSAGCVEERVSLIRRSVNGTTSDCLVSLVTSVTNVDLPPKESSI
Chain of AKT1, construct: aa109-end (P31749 109-480, looked up): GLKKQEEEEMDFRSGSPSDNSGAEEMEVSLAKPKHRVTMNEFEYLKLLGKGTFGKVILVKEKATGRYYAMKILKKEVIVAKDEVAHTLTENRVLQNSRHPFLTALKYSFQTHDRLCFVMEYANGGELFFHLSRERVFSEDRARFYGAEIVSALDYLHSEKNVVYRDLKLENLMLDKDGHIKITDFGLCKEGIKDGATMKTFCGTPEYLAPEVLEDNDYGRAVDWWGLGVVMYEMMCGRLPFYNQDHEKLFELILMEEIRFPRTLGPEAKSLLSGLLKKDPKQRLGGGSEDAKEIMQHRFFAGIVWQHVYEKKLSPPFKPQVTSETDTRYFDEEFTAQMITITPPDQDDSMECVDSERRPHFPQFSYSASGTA

AAK1, construct: aa27-365 (from UniProt Q2M2I8)
relative phosphorylation
Settings	at +1	at +2	at +3	at +4	at -1	at -2	at -3	at -4	at -5
A fixed	0.53	1.27	0.989	1.1	0.654	0.915	1.9	1.2	0.482
D fixed	0.174	0.939	0.688	0.662	0.274	1.37	0.462	0.565	0.273
E fixed	0.167	0.89	0.631	0.778	0.248	1.08	0.629	0.951	0.26
F fixed	0.219	0.826	0.731	0.89	0.926	0.571	0.828	0.883	0.722
G fixed	12.3	1.27	1.57	1.19	1.2	0.48	0.87	1.09	0.416
H fixed	0.272	1.05	1.15	0.951	1.17	0.963	0.676	0.874	0.564
I fixed	0.173	0.629	0.659	0.706	0.739	0.642	1.02	1.06	2.64
K fixed	0.33	0.98	1.26	1.41	2.09	0.998	0.879	1.38	0.445
L fixed	0.222	0.703	0.831	0.783	1.11	0.968	0.896	1.26	1.69
M fixed	0.21	0.817	0.743	0.789	0.941	1.98	1.33	1.18	1.47
N fixed	0.289	1.42	1.25	1.01	0.737	1.37	0.989	0.73	0.468
P fixed	0.787	0.896	1.16	1.07	1.93	0.385	1.84	0.908	1.22
Q fixed	0.235	1.31	1.06	1.08	0.675	2.58	1.18	1.07	0.952
R fixed	0.423	1.32	1.53	1.58	1.57	0.943	0.987	1.22	1.62
V fixed	0.182	0.922	1.04	0.718	0.666	0.578	1.09	1.05	1.62
W fixed	0.276	0.973	0.817	1.4	0.748	0.492	0.722	0.686	0.535
Y fixed	0.243	0.78	0.905	0.886	1.32	0.678	0.699	0.908	1.62
pThr fixed	0.209	0.696	0.57	0.427	0.206	0.356	0.514	0.564	0.342
pTyr fixed	0.171	0.697	0.61	0.46	0.303	0.826	0.466	0.576	1.04

ACVR2B, construct: aa161-end (from UniProt Q13705)
relative phosphorylation
Settings	at +1	at +2	at +3	at +4	at -1	at -2	at -3	at -4	at -5
A fixed	0.595	1.11	0.975	1.11	0.803	0.672	0.922	0.979	0.962
D fixed	2.06	1.33	0.992	1.24	1.46	3.9	1.99	1.75	1.81
E fixed	3.92	1.1	1.26	1.18	1.31	5.09	2	1.49	1.53
F fixed	0.786	0.848	0.958	0.819	1.01	0.514	0.898	1.06	1.03
G fixed	0.531	1.27	1.09	0.987	0.57	0.472	0.941	1.07	0.878
H fixed	0.823	0.877	0.867	0.955	1.01	0.664	0.928	1.04	0.88
I fixed	0.875	0.985	1	0.924	0.746	0.396	0.77	0.78	0.752
K fixed	0.372	0.75	0.617	0.767	0.554	0.403	0.722	0.644	0.734
L fixed	0.752	0.69	1.17	0.901	1.38	0.532	0.725	0.88	0.8
M fixed	0.917	0.868	1.03	0.887	1.37	0.458	0.802	0.853	0.878
N fixed	0.742	0.933	0.887	0.905	0.948	0.876	0.987	0.971	1.01
P fixed	0.316	1.41	1.18	1.22	0.595	0.335	0.784	0.913	0.905
Q fixed	1.02	0.859	0.904	0.994	0.81	0.659	0.947	0.838	0.847
R fixed	0.374	0.826	0.769	0.827	0.531	0.45	0.621	0.626	0.802
V fixed	1.06	1.13	0.98	0.941	1.04	0.534	0.892	0.883	0.924
W fixed	0.969	0.954	1.13	1.33	1.56	0.512	1.11	1.2	1.23
Y fixed	0.886	1.07	1.19	0.998	1.31	0.527	0.963	1.03	1.03
pThr fixed	4.33	1.49	1.08	1.29	1.86	1.18	1.78	1.34	1.29
pTyr fixed	2.48	1.11	1.19	1.08	1.85	0.886	2.34	1.45	1.26

AKT1, construct: aa109-end (from UniProt P31749)
relative phosphorylation
Settings	at +1	at +2	at +3	at +4	at -1	at -2	at -3	at -4	at -5
A fixed	0.492	0.908	0.834	0.83	0.739	0.942	0.543	0.894	0.938
D fixed	0.294	0.547	0.499	0.752	0.726	0.143	0.165	0.567	0.639
E fixed	0.292	0.394	0.537	0.53	0.387	0.132	0.164	0.703	0.639
F fixed	2.31	0.76	1.03	0.662	0.832	0.504	0.271	0.734	0.929
G fixed	0.657	1.07	1.21	1.01	1.32	0.592	0.453	1.03	1.01
H fixed	0.791	1.56	1.3	1.13	1.18	0.839	0.837	1.02	1.11
I fixed	1.7	1.02	0.838	0.646	0.337	0.414	0.245	0.66	0.74
K fixed	0.854	1.3	1.56	1.95	1.78	2.18	2.33	1.85	1.61
L fixed	1.22	1.13	0.826	0.786	0.978	1.02	0.295	0.75	0.789
M fixed	1.69	0.787	0.839	0.773	1.13	0.498	0.282	0.9	0.859
N fixed	0.924	1.08	1.06	1.1	1.44	0.444	0.332	0.804	0.795
P fixed	0.36	0.733	0.833	1.57	1.04	0.303	0.507	0.91	1.03
Q fixed	1.08	0.903	0.964	1.25	1.01	0.546	0.56	0.91	0.835
R fixed	0.952	1.95	1.94	1.84	1.75	7.28	9.07	2.75	2.58
V fixed	1.4	1.11	0.782	0.702	0.449	0.44	0.238	0.757	0.727
W fixed	1.12	0.831	0.963	0.884	0.663	0.332	0.352	0.972	0.893
Y fixed	0.853	0.913	0.979	0.593	1.24	0.392	0.355	0.785	0.877
pThr fixed	0.455	0.493	0.573	0.668	0.301	0.348	0.322	0.767	0.724
pTyr fixed	0.575	0.645	0.577	0.447	0.9	0.273	0.299	0.692	0.728
